Values of other authors in PMC2649756.

Biological target: βI-spectrin 1898-2083 (Homo sapiens) (UniProt P11277)
Conditions: cited from earlier work

Sequence of αI-spectrin (P02549 whole entry): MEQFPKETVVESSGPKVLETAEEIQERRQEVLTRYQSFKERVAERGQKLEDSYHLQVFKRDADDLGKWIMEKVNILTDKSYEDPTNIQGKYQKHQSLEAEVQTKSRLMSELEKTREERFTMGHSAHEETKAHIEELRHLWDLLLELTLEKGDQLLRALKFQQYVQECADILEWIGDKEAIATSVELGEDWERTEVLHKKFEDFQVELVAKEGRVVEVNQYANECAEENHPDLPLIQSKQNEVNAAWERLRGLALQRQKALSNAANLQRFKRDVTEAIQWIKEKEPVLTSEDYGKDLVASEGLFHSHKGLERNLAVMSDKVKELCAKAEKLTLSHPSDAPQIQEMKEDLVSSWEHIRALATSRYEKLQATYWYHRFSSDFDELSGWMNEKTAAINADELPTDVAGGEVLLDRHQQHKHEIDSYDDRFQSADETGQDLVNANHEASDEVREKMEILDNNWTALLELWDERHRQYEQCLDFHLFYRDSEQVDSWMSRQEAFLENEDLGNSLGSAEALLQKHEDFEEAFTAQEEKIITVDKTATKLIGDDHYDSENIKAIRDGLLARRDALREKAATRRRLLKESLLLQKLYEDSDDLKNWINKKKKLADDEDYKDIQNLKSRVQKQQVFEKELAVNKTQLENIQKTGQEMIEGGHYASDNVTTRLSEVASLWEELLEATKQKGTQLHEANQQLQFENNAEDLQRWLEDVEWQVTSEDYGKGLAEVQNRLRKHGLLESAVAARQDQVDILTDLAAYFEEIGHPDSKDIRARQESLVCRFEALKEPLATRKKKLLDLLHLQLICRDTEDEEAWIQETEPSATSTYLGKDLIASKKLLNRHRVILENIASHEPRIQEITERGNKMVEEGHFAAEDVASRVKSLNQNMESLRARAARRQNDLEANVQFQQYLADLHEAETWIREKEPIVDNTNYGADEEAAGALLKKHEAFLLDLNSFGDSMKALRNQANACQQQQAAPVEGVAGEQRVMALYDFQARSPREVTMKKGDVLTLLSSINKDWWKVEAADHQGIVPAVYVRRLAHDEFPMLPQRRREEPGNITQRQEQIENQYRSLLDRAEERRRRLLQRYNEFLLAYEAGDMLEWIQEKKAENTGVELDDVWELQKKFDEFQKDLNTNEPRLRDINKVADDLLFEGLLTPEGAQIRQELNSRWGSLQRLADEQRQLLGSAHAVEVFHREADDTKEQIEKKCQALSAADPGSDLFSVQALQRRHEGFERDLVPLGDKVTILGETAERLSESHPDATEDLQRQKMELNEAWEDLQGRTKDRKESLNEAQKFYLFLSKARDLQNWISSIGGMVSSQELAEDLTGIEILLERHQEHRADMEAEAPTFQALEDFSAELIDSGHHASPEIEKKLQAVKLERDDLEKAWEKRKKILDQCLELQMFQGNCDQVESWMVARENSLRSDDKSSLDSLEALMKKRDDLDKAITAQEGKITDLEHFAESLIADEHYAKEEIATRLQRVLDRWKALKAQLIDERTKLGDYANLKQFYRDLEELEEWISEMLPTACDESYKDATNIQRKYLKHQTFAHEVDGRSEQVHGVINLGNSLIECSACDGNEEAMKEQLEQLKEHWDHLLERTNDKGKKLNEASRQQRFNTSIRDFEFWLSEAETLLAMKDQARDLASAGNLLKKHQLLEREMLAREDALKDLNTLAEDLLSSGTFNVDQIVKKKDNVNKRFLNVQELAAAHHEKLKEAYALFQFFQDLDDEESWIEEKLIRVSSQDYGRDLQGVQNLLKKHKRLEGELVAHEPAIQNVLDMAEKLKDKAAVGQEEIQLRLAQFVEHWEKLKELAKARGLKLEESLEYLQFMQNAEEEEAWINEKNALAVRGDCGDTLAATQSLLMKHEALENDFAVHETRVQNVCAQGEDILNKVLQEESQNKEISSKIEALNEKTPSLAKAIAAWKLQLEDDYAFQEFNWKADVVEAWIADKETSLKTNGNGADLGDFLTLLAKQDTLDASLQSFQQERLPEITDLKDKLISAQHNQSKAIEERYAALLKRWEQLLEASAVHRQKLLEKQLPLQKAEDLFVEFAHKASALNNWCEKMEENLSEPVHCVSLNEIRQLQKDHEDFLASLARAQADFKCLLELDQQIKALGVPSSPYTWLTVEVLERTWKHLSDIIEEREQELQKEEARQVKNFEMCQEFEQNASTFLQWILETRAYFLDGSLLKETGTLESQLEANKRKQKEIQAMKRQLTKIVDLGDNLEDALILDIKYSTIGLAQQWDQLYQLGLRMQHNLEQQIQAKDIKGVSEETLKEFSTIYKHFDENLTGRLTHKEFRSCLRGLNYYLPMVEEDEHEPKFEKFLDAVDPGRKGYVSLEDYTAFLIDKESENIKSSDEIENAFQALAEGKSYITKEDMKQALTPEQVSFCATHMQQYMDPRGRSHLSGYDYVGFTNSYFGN
Sequence of βI-spectrin 1898-2083 (Homo sapiens) (P11277 1898-2083): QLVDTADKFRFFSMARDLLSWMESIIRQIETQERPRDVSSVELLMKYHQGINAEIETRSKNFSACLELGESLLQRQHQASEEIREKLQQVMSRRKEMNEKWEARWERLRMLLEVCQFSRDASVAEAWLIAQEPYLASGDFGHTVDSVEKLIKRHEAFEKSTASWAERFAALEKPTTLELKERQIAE

**Q.** With αI-spectrin (from UniProt P02549) as the substance, how does the Kd read?
**A.** 1000 nM
